Test results taken from patent US20220289810A1.

Target: bovine FSH hormone receptor expressed on HEK 293T cells (bovine) (UniProt P35376)
Assay: cell-based or functional assay

Sequence of UniProt P35376 (P35376 18-695): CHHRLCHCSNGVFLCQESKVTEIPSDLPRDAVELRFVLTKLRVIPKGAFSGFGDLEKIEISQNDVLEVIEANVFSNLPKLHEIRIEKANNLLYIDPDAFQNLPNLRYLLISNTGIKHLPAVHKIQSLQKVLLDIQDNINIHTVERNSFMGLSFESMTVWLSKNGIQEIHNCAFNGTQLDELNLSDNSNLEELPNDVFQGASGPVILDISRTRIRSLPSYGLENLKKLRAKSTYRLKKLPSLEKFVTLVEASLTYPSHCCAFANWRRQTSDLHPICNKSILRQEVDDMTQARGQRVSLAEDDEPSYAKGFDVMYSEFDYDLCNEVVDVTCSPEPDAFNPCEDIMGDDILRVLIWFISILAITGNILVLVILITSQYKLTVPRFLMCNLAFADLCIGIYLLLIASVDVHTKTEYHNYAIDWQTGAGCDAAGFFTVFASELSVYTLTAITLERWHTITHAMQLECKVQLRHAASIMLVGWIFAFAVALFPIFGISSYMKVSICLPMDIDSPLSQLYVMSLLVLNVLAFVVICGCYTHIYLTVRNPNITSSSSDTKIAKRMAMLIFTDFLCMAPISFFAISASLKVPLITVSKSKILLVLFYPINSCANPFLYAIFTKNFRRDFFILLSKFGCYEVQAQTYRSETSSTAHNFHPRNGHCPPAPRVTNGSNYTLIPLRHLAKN

Question: With “recombinant single chain equine chorionic gonadotropin BetaCTP-CTP-Alpha (CONSTRUCT #4) (ligand)” as the substance, how does the biological activity in vitro by stimulation of luciferase activity read?
Answer: 13300 IU/mg

Question: Which biological activity in vitro by stimulation of luciferase activity does the source give for “recombinant single chain equine chorionic gonadotropin CTP-BetaCTP-CTP-Alpha (CONSTRUCT #6) (ligand)” here?
Answer: 4770 IU/mg

Question: Which Estimated potency in vitro (sample 5G) does the source give for “recombinant single chain equine chorionic gonadotropin NTP-BetaCTP-CTP-Alpha (CONSTRUCT #5) (ligand)” here?
Answer: 6200 IU/mg

Question: And the biological activity in vitro by stimulation of luciferase activity?
Answer: 4010 IU/mg

Question: What about the in vitro FSH activity (CRE-luciferase reporter, HEK 293T cells with bovine FSH receptor); affinity purified construct #5 from transiently transfected CHO cells of the same substance?
Answer: 61 IU
